Test results published in US20210388087A1 (Chugai, published 2021).

B1: H183/L072 VH G52cF (antibody, name in Kabat numbering, V domains shown)
VH: QVQLVESGGGLVQPGRSLRLSCAASGFTFSNAWMHWVRQAPGKGLEWVAQIKDKFNAYAAYYAPSVKGRFTISRDDSKNSIYLQMNSLKTEDTAVYYCHYVHYASASTVLPAFGVDAWGQGTTVTVSS
VL: DIVMTQSPLSLPVTPGEPASISCQASQELVHMNRNTYLHWYQQKPGQAPRLLIYKVSNRFPGVPDRFSGSGSGTDFTLKISRVEAEDVGVYYCAQGTSVPFTFGQGTKLEIK
B2: H183/L072 VH G65A (antibody, name in Kabat numbering, V domains shown)
VH: QVQLVESGGGLVQPGRSLRLSCAASGFTFSNAWMHWVRQAPGKGLEWVAQIKDKGNAYAAYYAPSVKARFTISRDDSKNSIYLQMNSLKTEDTAVYYCHYVHYASASTVLPAFGVDAWGQGTTVTVSS
VL: DIVMTQSPLSLPVTPGEPASISCQASQELVHMNRNTYLHWYQQKPGQAPRLLIYKVSNRFPGVPDRFSGSGSGTDFTLKISRVEAEDVGVYYCAQGTSVPFTFGQGTKLEIK
B3: H183/L072 VH G52cT (antibody, name in Kabat numbering, V domains shown)
VH: QVQLVESGGGLVQPGRSLRLSCAASGFTFSNAWMHWVRQAPGKGLEWVAQIKDKTNAYAAYYAPSVKGRFTISRDDSKNSIYLQMNSLKTEDTAVYYCHYVHYASASTVLPAFGVDAWGQGTTVTVSS
VL: DIVMTQSPLSLPVTPGEPASISCQASQELVHMNRNTYLHWYQQKPGQAPRLLIYKVSNRFPGVPDRFSGSGSGTDFTLKISRVEAEDVGVYYCAQGTSVPFTFGQGTKLEIK
B4: H183/L072 VH G52cP (antibody, name in Kabat numbering, V domains shown)
VH: QVQLVESGGGLVQPGRSLRLSCAASGFTFSNAWMHWVRQAPGKGLEWVAQIKDKPNAYAAYYAPSVKGRFTISRDDSKNSIYLQMNSLKTEDTAVYYCHYVHYASASTVLPAFGVDAWGQGTTVTVSS
VL: DIVMTQSPLSLPVTPGEPASISCQASQELVHMNRNTYLHWYQQKPGQAPRLLIYKVSNRFPGVPDRFSGSGSGTDFTLKISRVEAEDVGVYYCAQGTSVPFTFGQGTKLEIK
B5: H183/L072 VH G52cS (antibody, name in Kabat numbering, V domains shown)
VH: QVQLVESGGGLVQPGRSLRLSCAASGFTFSNAWMHWVRQAPGKGLEWVAQIKDKSNAYAAYYAPSVKGRFTISRDDSKNSIYLQMNSLKTEDTAVYYCHYVHYASASTVLPAFGVDAWGQGTTVTVSS
VL: DIVMTQSPLSLPVTPGEPASISCQASQELVHMNRNTYLHWYQQKPGQAPRLLIYKVSNRFPGVPDRFSGSGSGTDFTLKISRVEAEDVGVYYCAQGTSVPFTFGQGTKLEIK
B6: H183/L072 VH G52cK (antibody, name in Kabat numbering, V domains shown)
VH: QVQLVESGGGLVQPGRSLRLSCAASGFTFSNAWMHWVRQAPGKGLEWVAQIKDKKNAYAAYYAPSVKGRFTISRDDSKNSIYLQMNSLKTEDTAVYYCHYVHYASASTVLPAFGVDAWGQGTTVTVSS
VL: DIVMTQSPLSLPVTPGEPASISCQASQELVHMNRNTYLHWYQQKPGQAPRLLIYKVSNRFPGVPDRFSGSGSGTDFTLKISRVEAEDVGVYYCAQGTSVPFTFGQGTKLEIK
B7: H183/L072 VH G52cH (antibody, name in Kabat numbering, V domains shown)
VH: QVQLVESGGGLVQPGRSLRLSCAASGFTFSNAWMHWVRQAPGKGLEWVAQIKDKHNAYAAYYAPSVKGRFTISRDDSKNSIYLQMNSLKTEDTAVYYCHYVHYASASTVLPAFGVDAWGQGTTVTVSS
VL: DIVMTQSPLSLPVTPGEPASISCQASQELVHMNRNTYLHWYQQKPGQAPRLLIYKVSNRFPGVPDRFSGSGSGTDFTLKISRVEAEDVGVYYCAQGTSVPFTFGQGTKLEIK
B8: H183/L072 VH G52cL (antibody, name in Kabat numbering, V domains shown)
VH: QVQLVESGGGLVQPGRSLRLSCAASGFTFSNAWMHWVRQAPGKGLEWVAQIKDKLNAYAAYYAPSVKGRFTISRDDSKNSIYLQMNSLKTEDTAVYYCHYVHYASASTVLPAFGVDAWGQGTTVTVSS
VL: DIVMTQSPLSLPVTPGEPASISCQASQELVHMNRNTYLHWYQQKPGQAPRLLIYKVSNRFPGVPDRFSGSGSGTDFTLKISRVEAEDVGVYYCAQGTSVPFTFGQGTKLEIK
B9: H183/L072 VH G65I (antibody, name in Kabat numbering, V domains shown)
VH: QVQLVESGGGLVQPGRSLRLSCAASGFTFSNAWMHWVRQAPGKGLEWVAQIKDKGNAYAAYYAPSVKIRFTISRDDSKNSIYLQMNSLKTEDTAVYYCHYVHYASASTVLPAFGVDAWGQGTTVTVSS
VL: DIVMTQSPLSLPVTPGEPASISCQASQELVHMNRNTYLHWYQQKPGQAPRLLIYKVSNRFPGVPDRFSGSGSGTDFTLKISRVEAEDVGVYYCAQGTSVPFTFGQGTKLEIK
B10: H183/L072 VH G52cN (antibody, name in Kabat numbering, V domains shown)
VH: QVQLVESGGGLVQPGRSLRLSCAASGFTFSNAWMHWVRQAPGKGLEWVAQIKDKNNAYAAYYAPSVKGRFTISRDDSKNSIYLQMNSLKTEDTAVYYCHYVHYASASTVLPAFGVDAWGQGTTVTVSS
VL: DIVMTQSPLSLPVTPGEPASISCQASQELVHMNRNTYLHWYQQKPGQAPRLLIYKVSNRFPGVPDRFSGSGSGTDFTLKISRVEAEDVGVYYCAQGTSVPFTFGQGTKLEIK
B11: H183/L072 VH G65M (antibody, name in Kabat numbering, V domains shown)
VH: QVQLVESGGGLVQPGRSLRLSCAASGFTFSNAWMHWVRQAPGKGLEWVAQIKDKGNAYAAYYAPSVKMRFTISRDDSKNSIYLQMNSLKTEDTAVYYCHYVHYASASTVLPAFGVDAWGQGTTVTVSS
VL: DIVMTQSPLSLPVTPGEPASISCQASQELVHMNRNTYLHWYQQKPGQAPRLLIYKVSNRFPGVPDRFSGSGSGTDFTLKISRVEAEDVGVYYCAQGTSVPFTFGQGTKLEIK
B12: H183/L072 VH G65P (antibody, name in Kabat numbering, V domains shown)
VH: QVQLVESGGGLVQPGRSLRLSCAASGFTFSNAWMHWVRQAPGKGLEWVAQIKDKGNAYAAYYAPSVKPRFTISRDDSKNSIYLQMNSLKTEDTAVYYCHYVHYASASTVLPAFGVDAWGQGTTVTVSS
VL: DIVMTQSPLSLPVTPGEPASISCQASQELVHMNRNTYLHWYQQKPGQAPRLLIYKVSNRFPGVPDRFSGSGSGTDFTLKISRVEAEDVGVYYCAQGTSVPFTFGQGTKLEIK
B13: H183/L072 VH G52cQ (antibody, name in Kabat numbering, V domains shown)
VH: QVQLVESGGGLVQPGRSLRLSCAASGFTFSNAWMHWVRQAPGKGLEWVAQIKDKQNAYAAYYAPSVKGRFTISRDDSKNSIYLQMNSLKTEDTAVYYCHYVHYASASTVLPAFGVDAWGQGTTVTVSS
VL: DIVMTQSPLSLPVTPGEPASISCQASQELVHMNRNTYLHWYQQKPGQAPRLLIYKVSNRFPGVPDRFSGSGSGTDFTLKISRVEAEDVGVYYCAQGTSVPFTFGQGTKLEIK
B14: H183/L072 VH G52cW (antibody, name in Kabat numbering, V domains shown)
VH: QVQLVESGGGLVQPGRSLRLSCAASGFTFSNAWMHWVRQAPGKGLEWVAQIKDKWNAYAAYYAPSVKGRFTISRDDSKNSIYLQMNSLKTEDTAVYYCHYVHYASASTVLPAFGVDAWGQGTTVTVSS
VL: DIVMTQSPLSLPVTPGEPASISCQASQELVHMNRNTYLHWYQQKPGQAPRLLIYKVSNRFPGVPDRFSGSGSGTDFTLKISRVEAEDVGVYYCAQGTSVPFTFGQGTKLEIK
B15: H183/L072 VH G52cI (antibody, name in Kabat numbering, V domains shown)
VH: QVQLVESGGGLVQPGRSLRLSCAASGFTFSNAWMHWVRQAPGKGLEWVAQIKDKINAYAAYYAPSVKGRFTISRDDSKNSIYLQMNSLKTEDTAVYYCHYVHYASASTVLPAFGVDAWGQGTTVTVSS
VL: DIVMTQSPLSLPVTPGEPASISCQASQELVHMNRNTYLHWYQQKPGQAPRLLIYKVSNRFPGVPDRFSGSGSGTDFTLKISRVEAEDVGVYYCAQGTSVPFTFGQGTKLEIK
B16: H183/L072 VH G52cR (antibody, name in Kabat numbering, V domains shown)
VH: QVQLVESGGGLVQPGRSLRLSCAASGFTFSNAWMHWVRQAPGKGLEWVAQIKDKRNAYAAYYAPSVKGRFTISRDDSKNSIYLQMNSLKTEDTAVYYCHYVHYASASTVLPAFGVDAWGQGTTVTVSS
VL: DIVMTQSPLSLPVTPGEPASISCQASQELVHMNRNTYLHWYQQKPGQAPRLLIYKVSNRFPGVPDRFSGSGSGTDFTLKISRVEAEDVGVYYCAQGTSVPFTFGQGTKLEIK
B17: H183/L072 VH G65L (antibody, name in Kabat numbering, V domains shown)
VH: QVQLVESGGGLVQPGRSLRLSCAASGFTFSNAWMHWVRQAPGKGLEWVAQIKDKGNAYAAYYAPSVKLRFTISRDDSKNSIYLQMNSLKTEDTAVYYCHYVHYASASTVLPAFGVDAWGQGTTVTVSS
VL: DIVMTQSPLSLPVTPGEPASISCQASQELVHMNRNTYLHWYQQKPGQAPRLLIYKVSNRFPGVPDRFSGSGSGTDFTLKISRVEAEDVGVYYCAQGTSVPFTFGQGTKLEIK
B18: H183/L072 VH G52cM (antibody, name in Kabat numbering, V domains shown)
VH: QVQLVESGGGLVQPGRSLRLSCAASGFTFSNAWMHWVRQAPGKGLEWVAQIKDKMNAYAAYYAPSVKGRFTISRDDSKNSIYLQMNSLKTEDTAVYYCHYVHYASASTVLPAFGVDAWGQGTTVTVSS
VL: DIVMTQSPLSLPVTPGEPASISCQASQELVHMNRNTYLHWYQQKPGQAPRLLIYKVSNRFPGVPDRFSGSGSGTDFTLKISRVEAEDVGVYYCAQGTSVPFTFGQGTKLEIK
B19: H183/L072 VH G52cY (antibody, name in Kabat numbering, V domains shown)
VH: QVQLVESGGGLVQPGRSLRLSCAASGFTFSNAWMHWVRQAPGKGLEWVAQIKDKYNAYAAYYAPSVKGRFTISRDDSKNSIYLQMNSLKTEDTAVYYCHYVHYASASTVLPAFGVDAWGQGTTVTVSS
VL: DIVMTQSPLSLPVTPGEPASISCQASQELVHMNRNTYLHWYQQKPGQAPRLLIYKVSNRFPGVPDRFSGSGSGTDFTLKISRVEAEDVGVYYCAQGTSVPFTFGQGTKLEIK
B20: H183/L072 VH G52cV (antibody, name in Kabat numbering, V domains shown)
VH: QVQLVESGGGLVQPGRSLRLSCAASGFTFSNAWMHWVRQAPGKGLEWVAQIKDKVNAYAAYYAPSVKGRFTISRDDSKNSIYLQMNSLKTEDTAVYYCHYVHYASASTVLPAFGVDAWGQGTTVTVSS
VL: DIVMTQSPLSLPVTPGEPASISCQASQELVHMNRNTYLHWYQQKPGQAPRLLIYKVSNRFPGVPDRFSGSGSGTDFTLKISRVEAEDVGVYYCAQGTSVPFTFGQGTKLEIK

These binders were tested against T1, Human CD137 ECD (human) (assay: single mutant vs template dBBDu183H).
T1 construct: also called 4-1BB
T1 sequence (chain, as listed by the source limits assumed): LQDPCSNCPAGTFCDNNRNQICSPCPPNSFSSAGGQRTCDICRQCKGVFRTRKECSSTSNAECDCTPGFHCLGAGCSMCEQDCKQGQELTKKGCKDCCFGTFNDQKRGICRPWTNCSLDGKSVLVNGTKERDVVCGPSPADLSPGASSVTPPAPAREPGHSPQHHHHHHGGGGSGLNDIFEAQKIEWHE
B1 was tested, and the “fold change of affinity” value was 1.7 fold. In the case of B2, the “fold change of affinity” value is reported as 1.2 fold. For B3, the “fold change of affinity” value was 1 fold. With B4 the “fold change of affinity” value was 0.4 fold. In the case of B5, the “fold change of affinity” value is reported as 1.3 fold. With B6 the “fold change of affinity” value was 0.2 fold. B7 was tested, and the “fold change of affinity” value was 1.3 fold. For B8, the “fold change of affinity” value was 0.8 fold. B9 was tested, and the “fold change of affinity” value was 1.3 fold. In the case of B10, the “fold change of affinity” value is reported as 0.9 fold. With B11 the “fold change of affinity” value was 1.2 fold. B12 was tested, and the “fold change of affinity” value was 1.3 fold. In the case of B13, the “fold change of affinity” value is reported as 0.7 fold. With B14 the “fold change of affinity” value was 2 fold. In the case of B15, the “fold change of affinity” value is reported as 0.7 fold. In the case of B16, the “fold change of affinity” value is reported as 0.2 fold. For B17, the “fold change of affinity” value was 1.3 fold. For B18, the “fold change of affinity” value was 0.6 fold. For B19, the “fold change of affinity” value was 2 fold. For B20, the “fold change of affinity” value was 0.7 fold.
